Results on three substances are retold here after PMC5955458, “Secreted Giardia intestinalis cysteine proteases disrupt intestinal epithelial cell junctional complexes and degrade chemokines” (Virulence, 2018).

For data set [1], the system named is Cc1cc(=O)oc2cc(NC(=O)[C@H](CCCNC(=N)N)NC(=O)[C@H](Cc3ccccc3)NC(=O)OCc3ccccc3)ccc12. Nature of the data set: purified protein. To be noted: 4 mM DTT, 10 mM EDTA.
The test system of data set [2] is Cc1cc(=O)oc2cc(NC(=O)[C@H](CCCNC(=N)N)NC(=O)[C@H](CCCNC(=N)N)NC(=O)OCc3ccccc3)ccc12. Kind of data set: purified protein. To be noted: 4 mM DTT, 10 mM EDTA.
Setting [3] is: pH 5.5, 37°C, sodium acetate buffer.
Where [4] appears, read: pH 6, 37°C, sodium phosphate buffer, pre-activated 120 min at pH 5.5.
The mark [5] stands for this setting: pH 5.5, 37°C, sodium acetate buffer, pre-activated 120 min at pH 5.5, pH 5.5.
[6] abbreviates: pH 6, 37°C, sodium phosphate buffer.

Take CP14019 (Giardia lamblia ATCC 50803): in data set [1] (setting [3]), the Km came out at 3.17 ± 0.34 µM and the catalytic efficiency (kcat/Km) lay within 179000 to 237000 M⁻¹ s⁻¹. Further, in data set [2] (setting [3]), the Km came to 5.11 ± 1.11 µM and the kcat/Km was in the range of 5410 to 9840 M⁻¹ s⁻¹.
CP16160 (Giardia lamblia ATCC 50803): in data set [1] (setting [4]), the Km was 9.40 ± 1.46 µM and the kcat/Km fell in the range of 43000 to 67700 M⁻¹ s⁻¹. Besides, in data set [2] (setting [5]), the Km turned out to be 5.60 ± 1.00 µM and the kcat/Km is 58600 to 96100 M⁻¹ s⁻¹.
In the case of CP16779 (Giardia lamblia ATCC 50803), the results for the Km in data set [1] (setting [6]) and in data set [2] (setting [6]) were 0.96 ± 0.24 µM and 5.40 ± 0.75 µM, respectively. Further, the kcat/Km in data set [1] (setting [6]) fell in the range of 1.02e+06 to 2.06e+06 M⁻¹ s⁻¹; in data set [2] (setting [6]), 10500 to 14800 M⁻¹ s⁻¹.

For orientation: Km means the substrate concentration at which the rate is half of its maximum. By kcat/Km is commonly meant the turnover number divided by the Michaelis constant.
